Measurements reported in patent US20170158747A1 (Novartis, published 2017).

What was measured:
Test in all cases: cell-based or functional assay
[1] = target: T1, human IL10 receptor (IL10R1/R2 receptor complex) on human whole blood cells (human, UniProt Q13651 22-578; Q08334 20-325)
T1 sequence (looked up) 1: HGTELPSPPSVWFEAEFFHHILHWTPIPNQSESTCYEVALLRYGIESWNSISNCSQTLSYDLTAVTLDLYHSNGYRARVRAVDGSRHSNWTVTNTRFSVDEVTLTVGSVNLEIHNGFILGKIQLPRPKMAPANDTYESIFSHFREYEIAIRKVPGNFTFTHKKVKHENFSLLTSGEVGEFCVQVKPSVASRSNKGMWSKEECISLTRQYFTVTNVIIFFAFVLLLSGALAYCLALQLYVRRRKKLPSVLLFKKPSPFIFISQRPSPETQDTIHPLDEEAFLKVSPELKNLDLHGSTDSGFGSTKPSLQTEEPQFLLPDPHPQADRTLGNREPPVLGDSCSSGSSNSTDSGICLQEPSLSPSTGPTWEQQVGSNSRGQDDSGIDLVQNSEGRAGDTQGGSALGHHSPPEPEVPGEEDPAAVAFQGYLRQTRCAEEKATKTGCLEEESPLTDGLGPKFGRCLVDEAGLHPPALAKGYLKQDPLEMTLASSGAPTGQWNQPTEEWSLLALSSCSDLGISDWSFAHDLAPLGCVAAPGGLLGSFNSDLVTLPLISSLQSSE
T1 sequence (looked up) 2: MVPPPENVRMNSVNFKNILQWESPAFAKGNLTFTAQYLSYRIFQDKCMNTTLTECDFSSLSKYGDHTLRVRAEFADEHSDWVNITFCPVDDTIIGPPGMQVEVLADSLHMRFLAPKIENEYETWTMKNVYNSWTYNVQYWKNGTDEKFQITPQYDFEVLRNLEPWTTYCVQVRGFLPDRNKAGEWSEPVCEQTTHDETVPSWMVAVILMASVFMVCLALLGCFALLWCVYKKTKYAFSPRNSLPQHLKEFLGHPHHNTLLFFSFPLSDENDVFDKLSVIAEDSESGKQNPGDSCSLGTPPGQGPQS

[2] = target: T2, cynomolgus monkey IL10 receptor on cynomolgus whole blood cells (cynomolgus monkey, UniProt A0A2K5WJ66 22-576; A0A7N9D6W2 20-323)
T2 sequence 1: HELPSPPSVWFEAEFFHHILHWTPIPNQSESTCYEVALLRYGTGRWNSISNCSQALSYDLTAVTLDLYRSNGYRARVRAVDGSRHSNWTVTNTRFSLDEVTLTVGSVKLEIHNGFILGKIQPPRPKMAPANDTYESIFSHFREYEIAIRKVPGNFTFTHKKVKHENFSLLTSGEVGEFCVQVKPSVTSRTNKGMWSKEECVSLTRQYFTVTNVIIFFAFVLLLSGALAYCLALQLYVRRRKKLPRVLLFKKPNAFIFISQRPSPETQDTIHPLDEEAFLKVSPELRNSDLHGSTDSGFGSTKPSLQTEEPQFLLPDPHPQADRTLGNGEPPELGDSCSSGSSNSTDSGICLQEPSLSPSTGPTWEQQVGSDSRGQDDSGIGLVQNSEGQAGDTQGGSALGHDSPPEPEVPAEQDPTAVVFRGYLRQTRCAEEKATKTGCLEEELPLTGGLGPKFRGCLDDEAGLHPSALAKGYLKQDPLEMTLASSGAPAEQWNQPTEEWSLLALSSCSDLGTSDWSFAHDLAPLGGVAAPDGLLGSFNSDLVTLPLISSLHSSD
T2 sequence 2: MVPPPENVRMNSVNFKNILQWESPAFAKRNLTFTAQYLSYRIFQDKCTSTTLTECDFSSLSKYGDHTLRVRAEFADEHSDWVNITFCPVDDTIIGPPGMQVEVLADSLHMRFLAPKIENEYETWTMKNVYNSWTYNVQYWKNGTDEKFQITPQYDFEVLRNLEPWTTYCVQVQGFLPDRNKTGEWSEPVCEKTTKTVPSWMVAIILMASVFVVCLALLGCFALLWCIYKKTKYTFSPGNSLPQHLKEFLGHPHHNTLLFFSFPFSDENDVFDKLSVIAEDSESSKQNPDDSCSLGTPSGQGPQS

[3] = target: T3, mouse IL10 receptor on mouse cells (whole blood, colon) (mouse, UniProt Q61727 17-575; Q61190 20-349)
T3 sequence (looked up) 1: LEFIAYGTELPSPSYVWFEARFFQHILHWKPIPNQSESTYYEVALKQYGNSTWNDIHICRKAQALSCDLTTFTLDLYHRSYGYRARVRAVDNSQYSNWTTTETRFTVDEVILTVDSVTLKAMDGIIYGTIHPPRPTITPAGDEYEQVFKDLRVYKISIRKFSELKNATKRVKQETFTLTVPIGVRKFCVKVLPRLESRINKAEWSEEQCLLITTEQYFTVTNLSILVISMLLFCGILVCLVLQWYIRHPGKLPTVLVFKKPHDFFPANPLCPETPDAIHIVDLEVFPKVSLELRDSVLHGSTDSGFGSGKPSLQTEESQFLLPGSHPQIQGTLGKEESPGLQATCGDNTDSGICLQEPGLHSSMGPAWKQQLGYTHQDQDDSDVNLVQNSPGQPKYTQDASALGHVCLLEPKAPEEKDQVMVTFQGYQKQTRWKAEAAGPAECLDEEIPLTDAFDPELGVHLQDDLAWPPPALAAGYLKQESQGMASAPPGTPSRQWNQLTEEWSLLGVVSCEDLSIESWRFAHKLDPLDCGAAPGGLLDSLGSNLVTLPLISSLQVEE
T3 sequence (looked up) 2: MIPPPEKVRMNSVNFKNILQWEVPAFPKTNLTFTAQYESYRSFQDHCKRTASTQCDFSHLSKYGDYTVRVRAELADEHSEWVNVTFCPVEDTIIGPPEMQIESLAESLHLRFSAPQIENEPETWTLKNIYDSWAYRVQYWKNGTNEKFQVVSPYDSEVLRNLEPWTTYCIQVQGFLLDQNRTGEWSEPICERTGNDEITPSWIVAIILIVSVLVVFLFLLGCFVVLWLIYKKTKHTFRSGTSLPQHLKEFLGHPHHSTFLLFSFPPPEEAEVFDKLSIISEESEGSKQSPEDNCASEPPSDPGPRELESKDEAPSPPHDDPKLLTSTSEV

B1: IgGIL10M13 (antibody)
heavy: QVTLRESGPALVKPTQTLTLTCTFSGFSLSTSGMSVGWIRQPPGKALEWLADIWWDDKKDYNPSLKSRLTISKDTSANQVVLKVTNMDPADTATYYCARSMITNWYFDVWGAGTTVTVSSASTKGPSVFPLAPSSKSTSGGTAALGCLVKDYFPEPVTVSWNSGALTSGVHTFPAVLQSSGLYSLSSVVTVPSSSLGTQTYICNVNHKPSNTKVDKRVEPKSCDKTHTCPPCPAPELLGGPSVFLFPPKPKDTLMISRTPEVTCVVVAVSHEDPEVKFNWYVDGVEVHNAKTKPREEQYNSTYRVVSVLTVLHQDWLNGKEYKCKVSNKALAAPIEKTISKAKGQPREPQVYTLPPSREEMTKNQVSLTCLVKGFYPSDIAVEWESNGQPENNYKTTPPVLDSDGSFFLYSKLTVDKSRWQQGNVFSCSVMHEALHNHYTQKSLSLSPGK
light: DIQMTQSPSTLSASVGDRVTITCKAQLSSPGQGTQSENSCTHFPGNLPNMLRDLRDAFSRVKTFFQMKDQLDNLLLKESLLEDFKGYLGCQALSEMIQFYLEEVMPQAENQDPDIKAHVNSLGENLKTLRLRLRRCHRFLPCENGGGSGGKSKAVEQVKNAFNKLQEKGIYKAMSEFDIFINYIEAYMTMKIRNVGYMHWYQQKPGKAPKLLIYDTSKLASGVPSRFSGSGSGTAFTLTISSLQPDDFATYYCFQGSGYPFTFGGGTKLEIKRTVAAPSVFIFPPSDEQLKSGTASVVCLLNNFYPREAKVQWKVDNALQSGNSQESVTEQDSKDSTYSLSSTLTLSKADYEKHKVYACEVTHQGLSSPVTKSFNRGEC
IC50, inhibition of LPS-induced TNFα production, ex vivo human whole blood [1]: 0.0252 nM
IC50, inhibition of LPS-induced TNFα production, ex vivo cynomolgus whole blood [2]: 0.00667 nM
IC50, inhibition of LPS-induced TNFα production, ex vivo mouse whole blood [3]: 0.012 nM
